Consider two molecules from patent US20090181009A1 (ARCA BIOPHARMA, published 2009).

Assay [1] addresses T1, NTB-A extracellular domain fused to a C-terminal tag of V5-His (NTB-A-ECD-V5His) (human).
T1 construct: Produced in HEK-293 cells; also called recombinant NTB-A protein; NTB-A V5-6His
T1 chain: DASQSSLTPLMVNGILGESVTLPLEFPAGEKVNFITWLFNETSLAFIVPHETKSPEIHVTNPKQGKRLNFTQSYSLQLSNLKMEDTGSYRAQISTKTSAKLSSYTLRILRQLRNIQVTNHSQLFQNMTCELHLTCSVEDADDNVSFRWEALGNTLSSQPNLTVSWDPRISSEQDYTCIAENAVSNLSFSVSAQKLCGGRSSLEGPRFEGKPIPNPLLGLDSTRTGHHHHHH
The assay can be described thus: SPR (BIAcore), mAb captured by anti-mouse mAb, antigen in solution, 25° C. As for the experimental part:
(§1) Kinetic rate constants (kₐ and kd) were determined using surface plasmon resonance and affinities (KD) were then calculated from the rate constants (kd/kₐ). Surface plasmon resonance was carried out on a BIAcore system (Biacore International AB, Uppsala, Sweden). […] Antigen was diluted to a starting concentration of 46 nM and tested for binding to the mAb samples using a 3-fold dilution series. Each of 5 concentrations was tested twice except the highest concentration which was tested 5 times in total, two times with a short dissociation of 300 seconds followed by three times with a dissociation of 60 minutes. The data sets from the long dissociation experiments were globally fit with the shorter […] experiments to determine binding constants for the interactions. The analysis was carried out in HBS, pH 7.4 buffer at 25° C. (Canziani et al, Anal. Biochem. 352:301-307 […]).

In assay [2] the target is T1, NTB-A extracellular domain fused to a …. The assay can be described thus: SPR (BIAcore), mAb captured by anti-mouse mAb, antigen in solution, 25° C.; KD = kd/ka. As for the experimental part:
as §1

In assay [3] the target is T2, human NTB-A (full-length, on cells) (human, UniProt Q96DU3 22-332).
T2 sequence: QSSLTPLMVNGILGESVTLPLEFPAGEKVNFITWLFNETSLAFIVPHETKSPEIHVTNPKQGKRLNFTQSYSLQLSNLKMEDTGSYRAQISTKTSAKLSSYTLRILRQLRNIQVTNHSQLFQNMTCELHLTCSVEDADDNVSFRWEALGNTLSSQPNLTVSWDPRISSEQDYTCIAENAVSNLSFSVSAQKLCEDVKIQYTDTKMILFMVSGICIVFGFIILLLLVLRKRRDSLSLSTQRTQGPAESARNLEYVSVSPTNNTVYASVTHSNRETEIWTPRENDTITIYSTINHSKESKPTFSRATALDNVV
The assay can be described thus: cell-based or functional assay.

Assay [4] concerns the target T3, NTB-A Δ5 deletion construct (human, UniProt Q96DU3 22-64).
T3 construct: Expressed in 293 cells and read by flow cytometry
T3 chain: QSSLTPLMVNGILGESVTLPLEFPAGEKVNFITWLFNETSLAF
The assay can be described thus: flow cytometry on 293 cells expressing the deletion construct.

Assay [5] concerns the target T4, NTB-A Δ4 deletion construct (human, UniProt Q96DU3 22-94).
T4 construct: Expressed in 293 cells and read by flow cytometry
T4 sequence: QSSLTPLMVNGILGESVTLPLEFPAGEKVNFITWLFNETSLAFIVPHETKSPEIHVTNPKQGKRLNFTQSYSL
The assay is described as above.

B1: anti-NTB-A monoclonal antibody 480.12 (antibody, mouse IgG2b, V domains shown)
VH: QIQLVQSGPELKKPGETVKISCKASGYTFTNFGMNWVKQAPGKGLKWMGWINTYSGEATYADDFKGRFAFSLETSASTAFLQISNLKNEDTATYFCARRGGTAEFDYWGQGTPLTVSSA
VL: EIVLTQSPTTVAASPGEKITITCSASSSISSNFLHWYQQKPGFSPKLLIYRTSKLASGVPGRFSGSGSGTSYSLTIGTMEAEDVATYYCQQGIYMPLTVGAGTKLELKRA
notes: Murine IgG2b from a hybridoma; also called ATCC Deposit No. PTA-7832
For the molecule B1, the koff in assay [1] amounted to 0.0005 s⁻¹. In assay [1], this molecule gave a kon of 404000 M⁻¹ s⁻¹. In assay [2], this molecule registered a Kd of 1.25 nM. Further, in assay [3], the “EC50 of CDC on cells from CLL patients” value was 9 to 15 ng/mL. Further, the binding result in assay [4] and in assay [5] was “no binding” each time.

B2: anti-NTB-A monoclonal antibody 994.1 (antibody, mouse IgG2b, V domains shown)
VH: QIQLVQSGPDLKNPGKTVKISCKASGYTFTNFGMNWVKQSPERGLKWMGWINTYNGKPTYADDFKGQFAFSLETSATTAYLQINNLKNEDTAAYFCAKRGGTVDFGYWGQGTTLTVSS
VL: EVVLTQSPTTMAASPGEKITVTCSASSPISSNFLHWYQQKPGFSPKLFIYRTSILASGVPARFSGSGSGTSFSLTIGAMEAEDVAAYYCQQGIYMPLTFGAGTKLELKR
notes: Murine IgG2b from a hybridoma; also called ATCC Deposit No. PTA-7831
With B2, the “EC50 of complement-dependent cytotoxicity (CDC) on CA46 cells” value in assay [3] was around 10 ng/mL. Also, the binding result in assay [4] and in assay [5] was “no binding” each time.
